Measured values reported in article PMC12090190 (ACS Chemical Biology, 2025).

Columns and labels:
[1] = molecular target: T1, WT hOTC (human ornithine transcarbamylase) (Homo sapiens, UniProt P00480); assay: differential scanning fluorimetry; type: binding; settings: 4 μM enzyme; 10 mM sodium phosphate
T1 sequence (P00480 33-354): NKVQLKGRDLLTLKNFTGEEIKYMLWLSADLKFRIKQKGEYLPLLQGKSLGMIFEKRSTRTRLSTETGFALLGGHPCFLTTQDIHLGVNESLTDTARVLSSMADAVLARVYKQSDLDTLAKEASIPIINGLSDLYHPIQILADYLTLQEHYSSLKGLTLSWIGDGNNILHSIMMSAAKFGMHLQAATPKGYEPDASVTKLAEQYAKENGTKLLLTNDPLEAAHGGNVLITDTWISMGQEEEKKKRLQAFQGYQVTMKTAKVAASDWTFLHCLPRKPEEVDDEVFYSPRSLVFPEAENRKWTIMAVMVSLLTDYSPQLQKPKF

[2] = substrate: NC(=O)OP(=O)(O)O; assay: discontinuous colorimetric citrulline assay, steady-state kinetics; type: biochemical, Homo sapiens; settings: co-substrate ornithine

O=P(O)(O)O [phosphate]
dTm [1]: The addition of phosphate generally increased the melting temperature of these variants

B1: WT hOTC (human ornithine transcarbamylase) (Homo sapiens) (protein)
chain: NKVQLKGRDLLTLKNFTGEEIKYMLWLSADLKFRIKQKGEYLPLLQGKSLGMIFEKRSTRTRLSTETGFALLGGHPCFLTTQDIHLGVNESLTDTARVLSSMADAVLARVYKQSDLDTLAKEASIPIINGLSDLYHPIQILADYLTLQEHYSSLKGLTLSWIGDGNNILHSIMMSAAKFGMHLQAATPKGYEPDASVTKLAEQYAKENGTKLLLTNDPLEAAHGGNVLITDTWISMGQEEEKKKRLQAFQGYQVTMKTAKVAASDWTFLHCLPRKPEEVDDEVFYSPRSLVFPEAENRKWTIMAVMVSLLTDYSPQLQKPKF
Km [2]: 240 ± 70 µM
kcat [2]: 56 ± 9.8 s⁻¹
kcat/Km [2]: 240000 ± 29000 M⁻¹ s⁻¹
